Reference: article PMC6078952, “Insights into the structure and dynamics of lysyl oxidase propeptide, a flexible protein with numerous partners” (Scientific Reports, 2018)

T1: Transglutaminase-2 (TG-2), mutant Cys277Ser (UniProt P21980 1-687, Cys277Ser)
T1 construct: transglutaminase-2, UniProtKB P21980; source: bought: Zedira, T018
T1 sequence (looked up): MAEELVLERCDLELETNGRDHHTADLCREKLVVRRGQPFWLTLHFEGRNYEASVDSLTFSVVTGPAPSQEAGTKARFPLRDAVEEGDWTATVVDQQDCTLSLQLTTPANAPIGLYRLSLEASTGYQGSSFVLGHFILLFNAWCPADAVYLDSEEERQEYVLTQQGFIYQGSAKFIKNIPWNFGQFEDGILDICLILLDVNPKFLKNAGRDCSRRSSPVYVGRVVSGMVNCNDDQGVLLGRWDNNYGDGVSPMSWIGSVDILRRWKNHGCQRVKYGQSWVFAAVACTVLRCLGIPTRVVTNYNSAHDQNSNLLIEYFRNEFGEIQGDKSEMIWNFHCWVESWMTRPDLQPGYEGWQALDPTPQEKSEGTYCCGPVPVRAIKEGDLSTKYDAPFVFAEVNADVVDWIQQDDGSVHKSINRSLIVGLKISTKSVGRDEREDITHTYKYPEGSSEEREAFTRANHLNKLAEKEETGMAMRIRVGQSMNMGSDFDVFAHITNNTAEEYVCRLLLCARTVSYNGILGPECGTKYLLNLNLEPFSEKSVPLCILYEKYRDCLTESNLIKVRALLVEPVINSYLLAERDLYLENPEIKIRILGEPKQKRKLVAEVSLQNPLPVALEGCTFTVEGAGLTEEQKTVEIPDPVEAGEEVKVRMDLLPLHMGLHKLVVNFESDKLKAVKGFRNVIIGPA

T2: Dermatopontin (UniProt Q07507 19-201)
T2 construct: dermatopontin, UniProtKB Q07507; source: bought: Abcam, ab158310
T2 sequence (looked up): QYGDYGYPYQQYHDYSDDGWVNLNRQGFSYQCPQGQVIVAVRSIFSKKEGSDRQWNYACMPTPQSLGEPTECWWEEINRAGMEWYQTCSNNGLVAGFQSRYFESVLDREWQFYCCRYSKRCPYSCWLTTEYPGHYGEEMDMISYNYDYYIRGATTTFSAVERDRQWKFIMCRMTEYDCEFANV

T3: Collagen VI (vWF1 domain) (UniProt P12109 20-256)
T3 construct: collagen alpha-1(VI) chain, UniProtKB P12109, residues 20-256 (vWF1 domain); also called Collagen VI alpha 1 chain (vWF1 domain); source: Expressed in the laboratory (PMID 24117177)
T3 sequence (looked up): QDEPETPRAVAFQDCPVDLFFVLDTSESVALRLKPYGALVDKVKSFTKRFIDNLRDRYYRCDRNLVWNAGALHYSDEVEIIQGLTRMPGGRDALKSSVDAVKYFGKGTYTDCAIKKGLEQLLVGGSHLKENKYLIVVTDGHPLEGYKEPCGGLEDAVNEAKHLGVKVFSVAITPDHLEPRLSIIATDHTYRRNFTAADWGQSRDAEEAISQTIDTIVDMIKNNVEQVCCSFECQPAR

T4: Matrix metalloproteinase-2 (MMP-2) (UniProt P08253 30-660)
T4 construct: matrix metalloproteinase-2, UniProtKB P08253, residues 30-660; source: bought: R&D Systems, 902-MPN
T4 sequence (looked up): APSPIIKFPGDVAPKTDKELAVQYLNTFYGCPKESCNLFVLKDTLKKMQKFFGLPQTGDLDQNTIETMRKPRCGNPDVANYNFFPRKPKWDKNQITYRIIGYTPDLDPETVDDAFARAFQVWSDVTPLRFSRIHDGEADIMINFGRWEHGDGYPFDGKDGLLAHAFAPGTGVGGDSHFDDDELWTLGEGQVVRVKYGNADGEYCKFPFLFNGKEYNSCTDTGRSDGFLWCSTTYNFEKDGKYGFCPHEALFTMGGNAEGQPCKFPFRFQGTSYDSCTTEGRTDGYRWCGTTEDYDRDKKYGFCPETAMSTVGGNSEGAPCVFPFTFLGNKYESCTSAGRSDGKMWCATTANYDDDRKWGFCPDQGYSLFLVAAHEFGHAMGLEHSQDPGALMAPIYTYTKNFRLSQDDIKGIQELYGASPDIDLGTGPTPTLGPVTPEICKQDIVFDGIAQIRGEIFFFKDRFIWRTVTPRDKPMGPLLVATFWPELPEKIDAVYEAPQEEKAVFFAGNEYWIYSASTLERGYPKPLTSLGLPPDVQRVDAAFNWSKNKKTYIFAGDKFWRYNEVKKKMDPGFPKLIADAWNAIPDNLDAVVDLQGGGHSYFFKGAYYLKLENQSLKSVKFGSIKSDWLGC

T5: Lysyl oxidase homolog 2 (LOXL2) (UniProt Q9Y4K0 26-774)
T5 construct: lysyl oxidase homolog 2, UniProtKB Q9Y4K0; also called lysyl oxidase-like 2; source: bought: R&D Systems, 2639-AO
T5 sequence (looked up): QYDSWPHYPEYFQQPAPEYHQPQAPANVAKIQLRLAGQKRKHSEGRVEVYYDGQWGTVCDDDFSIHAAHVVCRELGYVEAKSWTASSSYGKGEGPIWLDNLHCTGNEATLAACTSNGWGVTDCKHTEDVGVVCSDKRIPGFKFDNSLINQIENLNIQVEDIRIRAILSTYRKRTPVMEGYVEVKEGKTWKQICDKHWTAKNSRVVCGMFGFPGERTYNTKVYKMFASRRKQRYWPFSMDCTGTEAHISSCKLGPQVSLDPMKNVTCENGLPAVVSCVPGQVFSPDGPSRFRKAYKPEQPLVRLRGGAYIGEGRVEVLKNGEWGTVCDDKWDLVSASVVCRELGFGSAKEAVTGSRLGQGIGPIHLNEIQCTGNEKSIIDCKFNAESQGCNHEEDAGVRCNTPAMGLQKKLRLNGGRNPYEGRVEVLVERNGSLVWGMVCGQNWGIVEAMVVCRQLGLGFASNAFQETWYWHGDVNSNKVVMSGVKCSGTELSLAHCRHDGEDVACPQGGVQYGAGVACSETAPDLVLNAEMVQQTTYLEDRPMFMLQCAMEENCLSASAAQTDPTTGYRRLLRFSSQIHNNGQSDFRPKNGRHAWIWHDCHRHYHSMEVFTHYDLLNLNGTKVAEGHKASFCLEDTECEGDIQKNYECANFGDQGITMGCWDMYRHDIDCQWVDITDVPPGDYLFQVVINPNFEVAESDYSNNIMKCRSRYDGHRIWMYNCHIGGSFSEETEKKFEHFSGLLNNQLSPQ

T6: Fibromodulin (UniProt P13605 19-376)
T6 construct: proteoglycan; source: bought: Sigma-Aldrich, F6921
T6 sequence (looked up): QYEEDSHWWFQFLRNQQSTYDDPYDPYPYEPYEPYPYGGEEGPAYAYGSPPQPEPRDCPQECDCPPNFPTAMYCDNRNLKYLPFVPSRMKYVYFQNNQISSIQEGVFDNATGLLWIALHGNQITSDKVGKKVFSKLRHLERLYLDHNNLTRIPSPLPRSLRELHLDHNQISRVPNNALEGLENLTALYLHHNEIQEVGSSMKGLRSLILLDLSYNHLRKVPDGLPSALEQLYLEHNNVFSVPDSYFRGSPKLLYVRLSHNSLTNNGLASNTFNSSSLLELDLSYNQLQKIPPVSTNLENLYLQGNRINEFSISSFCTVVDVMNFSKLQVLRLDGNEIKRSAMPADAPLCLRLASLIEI

B1: Lysyl oxidase propeptide (LOX-PP) (Pro24Leu) (domain or fragment, human, UniProt P28300 22-168, looked up)
chain: APLAAGQQQPPREPPAAPGAWRQQIQWENNGQVFSLLSLGSQYQPQRRRDPGAAVPGAANASAQQPRTPILLIRDNRTAAARTRTAGSSGVTAGRPRPTARHWFQAGYSTSRAREAGASRAENQTAPGEVPALSNLRPPSRVDGMVG
modifications: N-linked glycans (removed by PNGase F)
notes: propeptide of human lysyl oxidase, UniProtKB P28300, residues 22-168; expressed from the pCEP-Pu-BM40 vector; also called propeptide of human lysyl oxidase; source: HEK293-EBNA, purified (anti-FLAG resin)

Columns and labels:
Test in all cases: SPR; SPR imaging (SPRi, Biacore Flexchip): partners spotted in triplicate on a bare gold chip at 0.06 to 1 mg/ml; purified LOX-PP injected at 2 µM and recirculated for 20 min; PBS with 0.05% Tween 20, 25 °C
Conditions in all cases: both partners purified
[1] = molecular target: B1
[2] = molecular target: T1, Transglutaminase-2 (TG-2), mutant …
[3] = molecular target: T2, Dermatopontin
[4] = molecular target: T3, Collagen VI (vWF1 domain)
[5] = molecular target: T4, Matrix metalloproteinase-2 (MMP-2)
[6] = molecular target: T5, Lysyl oxidase homolog 2 (LOXL2)
[7] = molecular target: T6, Fibromodulin

binding result [1]	binding result [2]	binding result [3]	binding result [4]	binding result [5]	binding result [6]	binding result [7]	Binder
binds							Epidermal growth factor (EGF) (ligand, UniProt P01133 971-1023, looked up, epidermal growth factor, feature PRO_0000007541 of pro-epidermal growth factor, UniProtKB P01133; source: bought: Sigma-Aldrich, E9644) NSDSECPLSHDGYCLHDGVCMYIEALDKYACNCVVGYIGERCQYRDLKWWELR
binds							Fibronectin fragment III1-C (anastellin) (domain or fragment, anastellin, fragment III1-C of fibronectin, UniProtKB P02751, residues 631-702; source: bought: Sigma-Aldrich, F3542) not shown
	binds	binds	binds	binds	binds	binds	B1
